# From US20140086924A1 (UNIVERSITY OF MASSACHUSETTS, published 2014)
# Ends that are not written are not given here. * marks the point of attachment. Biotin = O=C1N[C@H]2[C@H](CS[C@H]2CCCCC(=O)*)N1
# Experiments:
# [1] = biological target: T1, full length Hsp90alpha (human, UniProt P07900 1-732); experiment: competition ELISA, peptide inhibits the binding of recombinant survivin to Hsp90
# T1 construct: also called r-Hsp90; rHsp90
# [2] = biological target: T1, full length Hsp90alpha; experiment: surface plasmon resonance, biotin peptide on streptavidin chip, r-Hsp90 injected
# Description: Wild type Survivin peptide 77 to 91 (SEQ ID NO:22) or the corresponding C84A mutant 77-91 peptide ([…]; SEQ ID NO:23) was synthesized with an N-terminal biotin and immobilized on streptavidin coated chips (SA5) purchased from Biacore Inc. (Piscataway, N.J.). Increasing concentrations (100 nM-10 μM) of purified r-Hsp90 suspended in 10 mM HEPES, 150 mM NaCl, 3 mM EDTA, 0.005% polysorbate-20, 1 mM DTT, were then injected in […] over the immobilized peptides. A constant flow rate of […] was maintained, and the dissociation phase was followed for 300 seconds. Surfaces were regenerated using […] of 1 M NaCl/50 mM NaOH after each dissociation phase. A new injection cycle was initiated only after 10 min post-regeneration to ensure complete removal of NaCl and NaOH. The collected data were analyzed using the Biaeval 3.0 software package from Biacore Inc.
# Sensorgrams (FIG. 10B) indicate binding of the Survivin peptides to Hsp90, measured by an increase in surface plasmon resonance during analyte flow over the chip surface, with the nonspecific signal from the biotin-only surface subtracted.
# [3] = biological target: T1, full length Hsp90alpha; experiment: competition ELISA: peptide (20 µg/ml) preincubated with Hsp90, then added to immobilized full length Survivin (the competitor)
# Description: (§1) ELISA experiments were performed by immobilizing recombinant Survivin (r-Survivin) ([…]) or recombinant Hsp90 (r-Hsp90) (10 μg/ml) on plastic microtiter wells (Immulon™-2, Dynatech Laboratories, Chantilly, Va.) using bicarbonate buffer, pH 9.5 (100 μl/well) for 18 hours at 4° C. Bound protein was blocked with 3% gelatin for 1 hour at 37° C., rinsed with washing buffer (TBS pH 7.4, 0.1% Tween™, 0.1% BSA) and incubated for 1 hour at 37° C. with different concentrations of a test protein to determine if the test protein bound the immobilized protein.
# ELISA experiments were performed essentially as in Example 2 with the following variations. 20 μg/ml of each recombinant Survivin peptide (expressed in E. coli) was preincubated with Hsp90 at 2.5 mg/ml for 16 hours at 4° C. After binding and blocking of full length Survivin to wells in a microtiter plate, the preincubated mixtures of Hsp90 and Survivin peptides were added to the wells and incubated for 1 hour at 37° C. Wells were washed, incubated with primary antibody, washed again, and bound antibody was quantified as described above. Each experiment was repeated three times and the standard deviation is shown. The twelve amino acid Survivin peptide including Lysine 79-Lysine 90 (K79-K90; SEQ ID NO:3) was an especially effective inhibitor of Hsp90-Survivin binding interactions.
# [4] = biological target: T2, GST-Hsp90 (amino acids 1-732) (human, UniProt P07900 1-732); experiment: pull-down of 35S in vitro translated XIAP BIR3 with GST-Hsp90, autoradiography
# T2 construct: also called Sepharose-GST-Hsp90; GST fusion of full length Hsp90; not shown: glutathione S-transferase (GST) frame of vector pGex-4T3
# Source text: (§2) The cDNAs for XIAP and XIAP Baculovirus IAP Repeats (BIR) domains (BIR1, Met 1 to Ser 123; BIR2, Arg 124 to Pro 260; and BIR3, Ser 261 to Gln 336) were obtained from retro-transcription (SuperScript™ First Strand Synthesis System for RT-PCR, Invitrogen) of RNA extracted from HeLa cells (TRI Reagent™, Molecular Research Center Inc.), amplified by PCR, and cloned in pcDNA3 vector (Invitrogen). pcDNA3-XIAP and pcDNA3-XIAP BIR domains were translated in vitro using the TNT™ Quick Coupled Transcription/Translation System (Promega) in the presence of ³⁵S labeled methionine (Amersham), and 2, 5, and 8 μl of the reaction were incubated with 10 μg GST or GST fusion proteins as described above.
# (§3) pcDNA3-XIAP and pcDNA3-XIAP BIR domains were translated in vitro as described in Example 4. […] GST-Hsp90 or GST was mixed with ³⁵S in vitro translated XIAP or its individual Baculovirus IAP Repeats: BIR1, BIR2, and BIR3. Reactions were centrifuged and proteins that associated with the pellet were detected by autoradiography.
# [5] = biological target: T2, GST-Hsp90 (amino acids 1-732); experiment: pull-down of 35S in vitro translated XIAP BIR2 with GST-Hsp90, autoradiography
# Source text: as §2, §3
# [6] = biological target: T3, Hsp 27 (UniProt P04792 1-205); experiment: affinity chromatography of Raji cell extracts on immobilized peptide, Western blot
# T3 construct: Endogenous protein of Raji cells
# T3 sequence (P04792 whole entry): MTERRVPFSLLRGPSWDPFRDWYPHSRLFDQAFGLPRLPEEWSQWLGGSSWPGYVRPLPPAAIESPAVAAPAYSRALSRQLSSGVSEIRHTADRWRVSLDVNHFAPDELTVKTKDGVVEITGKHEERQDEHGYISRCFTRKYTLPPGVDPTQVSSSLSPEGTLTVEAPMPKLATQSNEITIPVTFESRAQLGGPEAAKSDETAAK
# Source text: A Survivin Ile⁷⁴-Leu⁸⁷ peptide (SEQ ID NO:4) containing a binding site for Hsp90 was immobilized onto a Sulfolink™ Coupling Gel (Pierce, Rockport, Ill.), and used to fractionate Raji cell extracts. Proteins were identified in the flow trough (FT) or eluate (E) by Western blotting with the indicated antibodies. Hsp90 and Hsp70 clearly bound the Survivin peptide including residues Ile⁷⁴-Leu⁸⁷. The anti-Hsp70 antibodies were obtained from Abcam, Cambridge, Mass. (cat. No. ab6535).
# [7] = biological target: T4, GST-N-Hsp90 (amino acids 1-272 of SEQ ID NO:21) (human, UniProt O02705 1-273 (pig entry)); experiment: ELISA, peptide immobilized at rising concentrations, Hsp90 N-terminal fragment added, detection with anti-Hsp90
# T4 construct: also called N-terminal domain of Hsp90; Hsp90 N-terminal fragment; not shown: glutathione S-transferase (GST) frame of vector pGex-4T3
# Description: as §1
# (§4) FIGS. 24A and 24B identify the location of P31 peptide's binding site as the N-terminus domain of Hsp90. The generation of recombinant Hsp90 fragments of the N-terminus or C-terminus is described in Example 3. ELISA experiments were performed as described in Example 2, except the indicated increasing concentrations of the P31 peptide (squares; SEQ ID NO:19) or control P33 peptide (circles; SEQ ID NO:25) were immobilized on plastic microtiter plates and incubated with the indicated Hsp90 N-terminal and C-terminal fragments. After washing, binding of the individual Hsp90 fragments to the immobilized peptides was detected with an antibody to Hsp90. Antibody to the C-terminal and N-terminal fragments of Hsp90 were obtained from BD/Transduction Laboratories and Santa Cruz Biotechnology, Inc. (Santa Cruz, Calif.), respectively.
# [8] = biological target: T5, GST-C-Hsp90 (amino acids 629-732 of SEQ ID NO:21) (human, UniProt A5A6K9 630-733 (Pan troglodytes entry)); experiment: ELISA, peptide immobilized at rising concentrations, Hsp90 C-terminal fragment added, detection with anti-Hsp90
# T5 construct: not shown: glutathione S-transferase (GST) frame of vector pGex-4T3
# T5 sequence (A5A6K9 630-733): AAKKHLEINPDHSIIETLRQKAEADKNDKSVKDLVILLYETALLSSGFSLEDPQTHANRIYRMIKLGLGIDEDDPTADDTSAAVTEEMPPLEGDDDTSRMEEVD
# Description: as §1, §4
# [9] = biological target: T1, full length Hsp90alpha; experiment: ELISA, peptide immobilized, recombinant Hsp90 added, detection with anti-Hsp90 (n=2); no blank bar on the sheet
# Description: Indicated synthetic peptides from the Survivin core sequence Lys 79-Leu 87 (SEQ ID NO:24) were synthesized carrying single alanine substitutions at each indicated position (alanine scanning mutagenesis). Individual peptides were immobilized at indicated increasing concentrations on plastic microtiter plates, incubated with recombinant Hsp90, and binding to the various substrates was determined with an antibody to Hsp90 by ELISA and quantified by absorbance at OD₄₀₅. […] In contrast, no differences were observed between the wild type peptide sequence and alanine substitutions of the residues flanking this sequence, Lys 79, Ala 85, Phe 86, and Leu 87.
binder,measurement,setting,value
RQIKIWFQNRRMKWKKKHSSG [shorter cell permeable Survivin peptide (Antennapedia carrier sequence fused to Survivin K79-G83)],binding result,[1],binds
Biotin-HKKHSSGCAFLSVKK (Immobilized on streptavidin coated Biacore chips; also called wild type peptide) [wild type Survivin peptide 77 to 91],Kd,[2],83.8 nM
same,"off-rate, fold slower than the C84A peptide (SEQ ID NO:23)",[2],10 fold
Biotin-HKKHSSGAAFLSVKK (Immobilized on streptavidin coated Biacore chips; also called C84A peptide) [C84A mutant Survivin 77-91 peptide],binding result,[2],binds
KHSSGCAFLSVK (Called both synthetic and recombinant (expressed in E. coli) in the same paragraph; also called K79-K90) [Survivin peptide Lysine 79-Lysine 90],binding result,[3],binds
"XIAP BIR3 fragment (Ser 261 to Gln 336) (other, human, UniProt P98170 261-336, looked up, range 261-336; 35S-labelled, in vitro translated) SMADYEARIFTFGTWIYSVNKEQLARAGFYALGEGDKVKCFHCGGGLTDWKPSEDPWEQHAKWYPGCKYLLEQKGQ",binding result,[4],no binding
"XIAP BIR2 fragment (Arg 124 to Pro 260) (other, human, UniProt P98170 124-260, looked up, range 124-260; 35S-labelled, in vitro translated) RDHFALDRPSETHADYLLRTGQVVDISDTIYPRNPAMYSEEARLKSFQNWPDYAHLTPRELASAGLYYTGIGDQVQCFCCGGKLKNWEPCDRAWSEHRRHFPNCFFVLGRNLNIRSESDAVSSDRNFPNSTNLPRNP",binding result,[5],no binding
IDDHKKHSSGCAFL (Immobilized on Sulfolink Coupling Gel; also called Survivin peptide (Ile74-Leu87)) [Survivin Ile74-Leu87 peptide],binding result,[6],no binding
Biotin-RQIKIWFQNRRMKWKKKHSSGCAFL (also called Survivin cell permeable peptide) [P31 survivin peptide (Antennapedia carrier sequence fused to Survivin K79-L87)],binding result,[7],binds
same,binding result,[1],binds
same,binding result,[8],no binding (tested: 0.25 mg/ml)
"KHSSGCAFL (Synthetic, immobilized on plastic microtiter plates; also called Survivin peptide (K79-L87)) [Survivin core sequence peptide Lys 79-Leu 87]",binding result,[9],binds
KHSSGCAFA (also called L87A) [Survivin Lys 79-Leu 87 peptide with alanine substitution of Leu 87],binding result,[9],binds
KHSSGCAAL (also called F86A) [Survivin Lys 79-Leu 87 peptide with alanine substitution of Phe 86],binding result,[9],binds
AHSSGCAFL (also called K79A) [Survivin Lys 79-Leu 87 peptide with alanine substitution of Lys 79],binding result,[9],binds
